# B1: 68 (VHH)
# VHH: QVQLVESGGGSVQAGGSLRLSCAASGTITNIGYLGWFRQAPGKEREGVAALKTYDGYTYYADSVKGRFTVSLDNAKNTVYLQMNSLKPEDTALYYCAAARHGRDEPLSYMYYSYWGQGTQVTVS
# B2: 73 (VHH)
# VHH: QVQLVESGGGSVQAGGSLRLSCAASGKIYQIGYLGWFRQAPGKEREGVAALMTTDGYTYYADSVKGRFTVSLDNAKNTVYLQMNSLKPEDTALYYCAAARHGRERPLHYWYYSYWGQGTQVTVS
# B3: 71 (VHH)
# VHH: QVQLVESGGGSVQAGGSLRLSCAASGNIQHIKYLGWFRQAPGREREGVAALMTRYGQTYYADSVKGRFTVSLDNAKNTVYLQMNSLKPEDTALYYCAAAHYGDNFPLAYQAYLYWGQGTQVTVS
# B4: 69 (VHH)
# VHH: QVQLVESGGGSVQAGGSLRLSCAASGYISEISYLGWFRQAPGKEREGVAALITGWGHTYYADSVKGRFTVSLDNAKNTVYLQMNSLKPEDTALYYCAAAQTGAWYPLETYIYHYWGQGTQVTVS
# B5: 51 (VHH)
# VHH: QVQLVESGGGLVQAGGSLRLSCAASGFPVKETWMHWYRQAPGKEREWVAAITSFGYKTYYADSVKGRFTISRDNAKNTVYLQMNSLKPEDTAVYYCNVKDAGDVTHQYDYWGQGTQVTVS
# B6: 53 (VHH)
# VHH: QVQLVESGGGLVQAGGSLRLSCAASGFPVYATVMHWYRQAPGKEREWVAAIYSTGMWTLYADSVKGRFTISRDNAKNTVYLQMNSLKPEDTAVYYCNVKDEGYDYYYYDYWGQGTQVTVS
# B7: 40 (VHH)
# VHH: QVQLVESGGGLVQAGGSLRLSCAASGFPVQGTWMEWYRQAPGKEREWVAAITSVGYRTYYADSVKGRFTISRDNAKNTVYLQMNSLKPEDTAVYYCNVKDEGAIAKNYDYWGQGTQVTVS
# B8: 52 (VHH)
# VHH: QVQLVESGGGLVQAGGSLRLSCAASGFPVNYNWMEWYRQAPGKEREWVAAITSWGYKTYYADSVKGRFTISRDNAKNTVYLQMNSLKPEDTAVYYCNVKDEGMWQHYYDYWGQGTQVTVS
# B9: 66 (VHH)
# VHH: QVQLVESGGGLVQAGGSLRLSCAASGFPEVNTWMEWYRQAPGKEREWVAAITSYGYRTYYADSVKGRFTISRDNAKNTVYLQMNSLKPEDTAVYYCNVKDEGSQSWAYDYWGQGTQVTVS
# B10: 61 (VHH)
# VHH: QVQLVESGGGLVQAGGSLRLSCAASGFPVQHEWMEWYRQAPGKEREWVAAITSYGYRTYYADSVKGRFTISRDNAKNTVYLQMNSLKPEDTAVYYCNVKDTGTYQAWYDYWGQGTQVTVS
# B11: 54 (VHH)
# VHH: QVQLVESGGGLVQAGGSLRLSCAASGFPVWNTWMEWYRQAPGKEREWVAAITSYGFKTYYADSVKGRFTISRDNAKNTVYLQMNSLKPEDTAVYYCNVKDEGNSQSHYDYWGQGTQVTVS
# B12: 45 (VHH)
# VHH: QVQLVESGGGLVQAGGSLRLSCAASGFPVAGTWMEWYRQAPGKEREWVAAITSYGYRTYYADSVKGRFTISRDNAKNTVYLQMNSLKPEDTAVYYCNVKDEGKSSQVYDYWGQGTQVTVS
# B13: 46 (VHH)
# VHH: QVQLVESGGGLVQAGGSLRLSCAASGFPVNYTIMFWYRKAPGKEREWVAAIKSHGATTLYADSVKGRFTISRDNAKNTVYLQMNSLKPEDTAVYYCNVKDVGNDQKSYDYWGQGTQVTVS
# B14: 41 (VHH)
# VHH: QVQLVESGGGLVQAGGSLRLSCAASGFPVEHQHMHWYRQAPGKEREWVAAIVSTGHYTIYADSVKGRFTISRDNAKNTVYLQMNSLKPEDTAVYYCNVKDWGDTSQYYDYWGQGTQVTVS
# B15: 43 (VHH)
# VHH: QVQLVESGGGLVQAGGSLRLSCAASGFPVEWTHMHWYRQAPGKEREWVAAIASSGAYTVYADSVKGRFTISRDNAKNTVYLQMNSLKPEDTAVYYCNVKDWGSQDRYYDYWGQGTQVTVS
# B16: 50 (VHH)
# VHH: QVQLVESGGGLVQAGGSLRLSCAASGFPVQYEHMHWYRQAPGKEREWVAAIVSEGAYTHYADSVKGRFTISRDNAKNTVYLQMNSLKPEDTAVYYCNVKDWGWLAQYYDYWGQGTQVTVS
# B17: 47 (VHH)
# VHH: QVQLVESGGGLVQAGGSLRLSCAASGFPVVWAHMHWYRQAPGKEREWVAAITSEGAHTIYADSVKGRFTISRDNAKNTVYLQMNSLKPEDTAVYYCNVKDWGTYSTYYDYWGQGTQVTVS
# B18: 57 (VHH)
# VHH: QVQLVESGGGLVQAGGSLRLSCAASGFPVEHDHMHWYRQAPGKEREWVAAIVSQGAYTVYADSVKGRFTISRDNAKNTVYLQMNSLKPEDTAVYYCNVKDWGRAGARYDYWGQGTQVTVS
# B19: 77 (VHH)
# VHH: QVQLVESGGGSVQAGGSLRLSCAASGSISSITYLGWFRQAPAKSVRAVAALDTEQGETYYADSVKGRFTVSLDNAKNTVYLQMNSLKPEDTALYYCAAANQHGGYYPLDSAWYTYWGQGTQVTVS
# B20: 64 (VHH)
# VHH: QVQLVESGGGLVQAGGSLRLSCAASGFPVYNRYMLWYRQAPGKEREWVAAITSYGYHTTYADSVKGRFTISRDNAKNTVYLQMNSLKPEDTAVYYCNVKDYGQHQQVYDYWGQGTQVTVS
# B21: 63 (VHH)
# VHH: QVQLVESGGGLVQAGGSLRLSCAASGFPVNAEIMFWYRQAPGKEREWVAAIKSAGTTTLYADSVKGRFTISRDNAKNTVYLQMNSLKPEDTAVYYCNVKDYGAQAHYYDYWGQGTQVTVS
# B22: 75 (VHH)
# VHH: QVQLVESGGGSVQAGGSLRLSCAASGYINQIYYLGWFRQAPGKEREGVAALNTYQGQTYYADSVKGRFTVSLDNAKNTVYLQMNSLKPEDTALYYCAAARWGRDEPLYHYYYSYWGQGTQVTVS
# B23: 79 (VHH)
# VHH: QVQLVESGGGSVQAGGSLRLSCAASGYIHTIEYLGWFRQAPGKEREGVAALYTLKGQTYYADSVKGRFTVSLDNAKNTVYLQMNSLKPEDTALYYCAAARWGRDTPLHYQYYSYWGQGTQVTVS
# B24: 62 (VHH)
# VHH: QVQLVESGGGLVQAGGSLRLSCAASGFPVEQEHMYWYRQASGKEREWVAAIVSEGAYTAYADSVKGRFTISRDNAKNTVYLQMNSLKPEDTAVYYCNVKDWGGYQWYYDYWGQGTQVTVS
# B25: 60 (VHH)
# VHH: QVQLVESGGGLVQAGGSLRLSCAASGFPVVAWQMTWYRQAPGKEREWVAAIRSFGVSTHYADSVKGRFTISRDNAKNTVYLQMNSLKPEDTAVYYCNVKDWGYEYEGYDYWGQGTQVTVS
# B26: 56 (VHH)
# VHH: QVQLVESGGGLVQAGGSLRLSCAASGFPVEMWSMEWYRQAPGKEREWVAAIMSFGYQTWYADSVKGRFTISRDNAKNTVYLQMNSLKPEDTAVYYCNVKDAGNSKALYDYWGQGTQVTVS
# B27: 49 (VHH)
# VHH: QVQLVESGGGLVQAGGSLRLSCAASGFPVHYTHMHWYRQAPGKEREWVAAIASSGAYTVYADSVKGRFTISRDNAKNTVYLQMNSLKPEDTAVYYCNVKDWGTYNTYYDYWGQGTQVTVS
# B28: 67 (VHH)
# VHH: QVQLVESGGGLVQAGGSLRLSCAASGFPVMWAHMAWYRQAPGKEREWVAAIVSAGAYTHYADSVKGRFTISRDNAKNTVYLQMNSLKPEDTAVYYCNVKDWGTYNSYYDYWGQGTQVTVS
# B29: 58 (VHH)
# VHH: QVQLVESGGGLVQAGGSLRLSCAASGFPVDAAWMEWYRQAPGKEREWVAAITSYGYRTYYADSVKGRFTISRDNAKNTVYLQMNSLKPEDTAVYYCNVKDMDRWRTTYDYWGQGTQVTVS
# B30: 44 (VHH)
# VHH: QVQLVESGGGLVQAGGSLRLSCAASGFPVERKHMLWYRQSPGKEREWVAAIVSYGNYTTYADSVKGRFTISRDNAKNTVYLQMNSLKPEDTAVYYCNVKDHGFNTVLYDYWGQGTQVTVS
# B31: 48 (VHH)
# VHH: QVQLVESGGGLVQAGGSLRLSCAASGFPVAHWWMEWYRQAPGKEREWVAAIFSEGNWTHYADSVKGRFTISRDNAKNTVYLQMNSLKPEDTAVYYCNVKDTGATQFAYDYWGQGTQVTVS
# B32: 78 (VHH)
# VHH: QVQLVESGGGSVQAGGSLRLSCAASGYIKSIKYLGWFRQAPGKEREGVAALMTRYGETYYADSVKGRFTVSLDNAKNTVYLQMNSLKPEDTALYYCAAANYGNNWPLTGVNYWYWGQGTQVTVS
# B33: 81 (VHH)
# VHH: QVQLVESGGGSVQAGGSLRLSCAASGYIHRIEYLGWFRQAPGKEREGVAALSTISGNTYYADSVKGRFTVSLDNAKNTVYLQMNSLKPEDTALYYCAAARFGRAYPLHYYQYTYWGQGTQVTVS
# Target: SARS-CoV-2 spike receptor-binding domain (2019-nCoV RBD-SD1, residues 319–566) (SARS-CoV-2, UniProt P0DTC2)
row,Binder,binding result
1,B1,binds
2,B2,binds
3,B3,binds
4,B4,binds
5,B5,binds
6,B6,binds
7,B7,binds
8,B8,binds
9,B9,binds
10,B10,binds
11,B11,binds
12,B12,binds
13,B13,binds
14,B14,binds
15,B15,binds
16,B16,binds
17,B17,binds

row,Binder,binding result
1,B18,binds
2,B19,binds
3,B20,binds
4,B21,binds
5,B22,binds
6,B23,binds
7,B24,binds
8,B25,binds
9,B26,binds
10,B27,binds
11,B28,binds
12,B29,binds
13,B30,binds
14,B31,binds
15,B32,binds
16,B33,binds
